Data reported in patent US20230395187A1 (published 2023).

Molecular target: SARS-CoV-2 spike protein, WT (SARS-CoV-2, UniProt P0DTC2 14-1208)
Assay: virus-free Luminex binding assay, spike on beads

B1: Imdevimab (RGN87) (antibody, V domains shown)
VH: QVQLVESGGGVVQPGRSLRLSCAASGFTFSNYAMYWVRQAPGKGLEWVAVISYDGSNKYYADSVKGRFTISRDNSKNTLYLQMNSLRTEDTAVYYCASGSDYGDYLLVYWGQGTLVTVSS
VL: QSALTQPASVSGSPGQSITISCTGTSSDVGGYNYVSWYQQHPGKAPKLMIYDVSKRPSGVSNRFSGSKSGNTASLTISGLQSEDEADYYCNSLTSISTWVFGGGTKLTVLG
EC50: 0.082 µg/mL
